{
  "source": "patent US20090149339A1",
  "about": "(published 2009)",
  "note": "Ends that are not written are not given here. * marks the point of attachment. Biotin = O=C1N[C@H]2[C@H](CS[C@H]2CCCCC(=O)*)N1",
  "data": [
    {"target": "GST-TIAM1 PDZ domain fusion protein (T-lymphoma invasion and metastasis inducing protein 1 AA1001-1088); PDZ 1 … (UniProt P08515 1-218 = GST)", "sequence (P08515 1-218, tags or fused parts left off)": "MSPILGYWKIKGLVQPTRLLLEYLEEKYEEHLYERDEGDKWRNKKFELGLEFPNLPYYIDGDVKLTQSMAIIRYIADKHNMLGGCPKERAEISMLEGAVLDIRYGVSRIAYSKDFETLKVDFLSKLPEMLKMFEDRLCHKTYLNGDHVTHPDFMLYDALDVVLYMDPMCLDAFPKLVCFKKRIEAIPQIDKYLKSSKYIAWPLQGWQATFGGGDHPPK", "experiment": "A/G assays", "values": [
      {"binder": "Biotin-TSGTGHNQTRALRASESGI", "note": "[CD97 (CD55L) C-terminal PL peptide AA14L, biotinylated]", "binding result": "no binding"}
    ]},
    {"target": "GST-LIMK2 PDZ domain fusion protein (human LIM domain kinase 2 AA185-275; PDZ domain 1 of 1) (human, UniProt P08515 1-218 = GST)", "sequence (P08515 1-218, tags or fused parts left off)": "as above", "experiment": "A/G assays", "values": [
      {"binder": "Biotin-TSGTGHNQTRALRASESGI", "note": "[CD97 (CD55L) C-terminal PL peptide AA14L, biotinylated]", "binding result": "no binding"}
    ]},
    {"target": "T1, GST-TAX43 PDZ domain fusion protein (human tax interaction protein 43 AA15-85; PDZ domain 1 of 1) (human, UniProt P08515 1-218 = GST)", "T1 construct": "also called TX 43", "T1 sequence (P08515 1-218, tags or fused parts left off)": "as above", "experiment": "A/G assays", "values": [
      {"binder": "Biotin-TSGTGHNQTRALRASESGI", "note": "[CD97 (CD55L) C-terminal PL peptide AA14L, biotinylated]", "binding result": "no binding"}
    ]},
    {"target": "GST-MPP1 PDZ domain fusion protein (55 Kd erythrocyte membrane protein AA101-186; PDZ domain 1 of 1) (UniProt P08515 1-218 = GST)", "sequence (P08515 1-218, tags or fused parts left off)": "as above", "experiment": "A/G assays", "values": [
      {"binder": "Biotin-TSGTGHNQTRALRASESGI", "note": "[CD97 (CD55L) C-terminal PL peptide AA14L, biotinylated]", "binding result": "no binding"}
    ]},
    {"target": "T2, GST-RGS12 PDZ domain fusion protein (human regulator of G-protein signalling 12 AA35-103; PDZ domain 1 of 1) (human, UniProt P08515 1-218 = GST)", "T2 construct": "also called RSG12", "T2 sequence (P08515 1-218, tags or fused parts left off)": "as above", "experiment": "A/G assays", "values": [
      {"binder": "Biotin-TSGTGHNQTRALRASESGI", "note": "[CD97 (CD55L) C-terminal PL peptide AA14L, biotinylated]", "binding result": "no binding"}
    ]},
    {"target": "GST-LIM PDZ domain fusion protein (Human LIM protein AA29-112; PDZ domain 1 of 1) (human, UniProt P08515 1-218 = GST)", "sequence (P08515 1-218, tags or fused parts left off)": "as above", "experiment": "A/G assays", "values": [
      {"binder": "Biotin-TSGTGHNQTRALRASESGI", "note": "[CD97 (CD55L) C-terminal PL peptide AA14L, biotinylated]", "binding result": "no binding"}
    ]},
    {"target": "T3, GST-CBP PDZ domain fusion protein (Cytohesin binding protein HE AA85-175; PDZ domain 1 of 1) (UniProt P08515 1-218 = GST)", "T3 construct": "also called Prot", "T3 sequence (P08515 1-218, tags or fused parts left off)": "as above", "experiment": "A/G assays", "values": [
      {"binder": "Biotin-TSGTGHNQTRALRASESGI", "note": "[CD97 (CD55L) C-terminal PL peptide AA14L, biotinylated]", "binding result": "no binding"}
    ]},
    {"target": "T4, GST-TAX40 PDZ domain fusion protein (human tax interaction protein 40 AA35-137; PDZ domain 1 of 1) (human, UniProt P08515 1-218 = GST)", "T4 construct": "also called TX 40", "T4 sequence (P08515 1-218, tags or fused parts left off)": "as above", "experiment": "A/G assays", "values": [
      {"binder": "Biotin-TSGTGHNQTRALRASESGI", "note": "[CD97 (CD55L) C-terminal PL peptide AA14L, biotinylated]", "binding result": "no binding"}
    ]},
    {"target": "GST-PSD95 PDZ domain fusion protein (human post-synaptic density protein 95 AA387-724; PDZ domains 1-3 of 3) (human, UniProt P08515 1-218 = GST)", "sequence (P08515 1-218, tags or fused parts left off)": "as above", "experiment": "A/G assays", "values": [
      {"binder": "Biotin-TSGTGHNQTRALRASESGI", "note": "[CD97 (CD55L) C-terminal PL peptide AA14L, biotinylated]", "binding result": "no binding"}
    ]},
    {"target": "T5, GST-CASK PDZ domain fusion protein (CASK AA495-584; PDZ domain 1 of 1) (mouse, UniProt P08515 1-218 = GST)", "T5 construct": "also called mCASK", "T5 sequence (P08515 1-218, tags or fused parts left off)": "as above", "experiment": "A/G assays", "values": [
      {"binder": "Biotin-TSGTGHNQTRALRASESGI", "note": "[CD97 (CD55L) C-terminal PL peptide AA14L, biotinylated]", "binding result": "no binding"}
    ]},
    {"target": "T6, GST-TAX33 PDZ domain fusion protein (tax interaction protein 33 AA73-162; PDZ domain 1 of 1) (UniProt P08515 1-218 = GST)", "T6 construct": "also called TX33", "experiment": "A/G assays", "values": [
      {"binder": "Biotin-TSGTGHNQTRALRASESGI", "note": "[CD97 (CD55L) C-terminal PL peptide AA14L, biotinylated]", "binding result": "no binding"}
    ]},
    {"target": "GST-prIL16 PDZ domain fusion protein (putative interleukin 16 precursor AA170-383; PDZ domains 1-2 of 2) (UniProt P08515 1-218 = GST)", "sequence (P08515 1-218, tags or fused parts left off)": "as above", "experiment": "A/G assays", "values": [
      {"binder": "Biotin-TSGTGHNQTRALRASESGI", "note": "[CD97 (CD55L) C-terminal PL peptide AA14L, biotinylated]", "binding result": "no binding"}
    ]},
    {"target": "T7, GST-NeDLG PDZ domain fusion protein (presynaptic protein sao102, neuroendocrine-dlg; PDZ domains 1-2 of 3) (UniProt P08515 1-218 = GST)", "T7 construct": "also called NeDLG1", "T7 sequence (P08515 1-218, tags or fused parts left off)": "as above", "experiment": "A/G assays", "values": [
      {"binder": "Biotin-TSGTGHNQTRALRASESGI", "note": "[CD97 (CD55L) C-terminal PL peptide AA14L, biotinylated]", "binding result": "no binding"}
    ]},
    {"target": "GST-NOS1 PDZ domain fusion protein (human neuronal nitric oxide synthase; PDZ domain 1 of 1) (human, UniProt P08515 1-218 = GST)", "sequence (P08515 1-218, tags or fused parts left off)": "as above", "experiment": "A/G assays", "values": [
      {"binder": "Biotin-TSGTGHNQTRALRASESGI", "note": "[CD97 (CD55L) C-terminal PL peptide AA14L, biotinylated]", "binding result": "no binding"}
    ]},
    {"target": "T8, GST-KIAA0303 PDZ domain fusion protein (KIAA0303 AA652-742; PDZ domain 1 of 1) (UniProt P08515 1-218 = GST)", "T8 construct": "also called K303", "T8 sequence (P08515 1-218, tags or fused parts left off)": "as above", "experiment": "A/G assays", "values": [
      {"binder": "Biotin-TSGTGHNQTRALRASESGI", "note": "[CD97 (CD55L) C-terminal PL peptide AA14L, biotinylated]", "binding result": "no binding"}
    ]},
    {"target": "T9, GST-KIAA0316 PDZ domain fusion protein (KIAA0316 AA197-284; PDZ domain 1 of 1) (UniProt P08515 1-218 = GST)", "T9 construct": "also called K316", "T9 sequence (P08515 1-218, tags or fused parts left off)": "as above", "experiment": "A/G assays", "values": [
      {"binder": "Biotin-TSGTGHNQTRALRASESGI", "note": "[CD97 (CD55L) C-terminal PL peptide AA14L, biotinylated]", "binding result": "no binding"}
    ]},
    {"target": "T10, GST-SYN1a PDZ domain fusion protein (alpha1-syntrophin AA96-189; PDZ domain 1 of 1) (UniProt P08515 1-218 = GST)", "T10 construct": "also called SYN 1 alpha; SYNTR 1 alpha", "experiment": "A/G assays", "values": [
      {"binder": "Biotin-TSGTGHNQTRALRASESGI", "note": "[CD97 (CD55L) C-terminal PL peptide AA14L, biotinylated]", "binding result": "no binding"}
    ]},
    {"target": "T11, GST-KIAA0559 PDZ domain fusion protein (KIAA0559 AA766-870; PDZ1 of 1) (UniProt P08515 1-218 = GST)", "T11 construct": "also called K559", "T11 sequence (P08515 1-218, tags or fused parts left off)": "as above", "experiment": "A/G assays", "values": [
      {"binder": "Biotin-TSGTGHNQTRALRASESGI", "note": "[CD97 (CD55L) C-terminal PL peptide AA14L, biotinylated]", "binding result": "no binding"}
    ]},
    {"target": "GST-PTN-4 PDZ domain fusion protein (protein-tyrosine phosphatase meg1 AA774-862; PDZ domain 1 of 1) (UniProt P08515 1-218 = GST)", "experiment": "A/G assays", "values": [
      {"binder": "Biotin-TSGTGHNQTRALRASESGI", "note": "[CD97 (CD55L) C-terminal PL peptide AA14L, biotinylated]", "binding result": "no binding"}
    ]},
    {"target": "GST-AF6 PDZ domain fusion protein (af-6 protein AA985-1077; PDZ domain 1 of 1) (UniProt P08515 1-218 = GST)", "sequence (P08515 1-218, tags or fused parts left off)": "as above", "experiment": "A/G assays", "values": [
      {"binder": "Biotin-TSGTGHNQTRALRASESGI", "note": "[CD97 (CD55L) C-terminal PL peptide AA14L, biotinylated]", "binding result": "no binding"}
    ]},
    {"target": "GST-MINT3 PDZ domain fusion protein (human MINT3 AA11-52; PDZ domain 1 of 1) (human, UniProt P08515 1-218 = GST)", "sequence (P08515 1-218, tags or fused parts left off)": "as above", "experiment": "A/G assays", "values": [
      {"binder": "Biotin-TSGTGHNQTRALRASESGI", "note": "[CD97 (CD55L) C-terminal PL peptide AA14L, biotinylated]", "binding result": "no binding"}
    ]},
    {"target": "GST-DVL1 PDZ domain fusion protein (human dishevelled segment polarity protein homolog AA248-340); PDZ domain … (human, UniProt P08515 1-218 = GST)", "experiment": "A/G assays", "values": [
      {"binder": "Biotin-TSGTGHNQTRALRASESGI", "note": "[CD97 (CD55L) C-terminal PL peptide AA14L, biotinylated]", "binding result": "no binding"}
    ]},
    {"target": "T12, GST-TAX2 PDZ domain fusion protein (human tax interaction protein 2 AA54-140; PDZ domain 1 of 1) (human, UniProt P08515 1-218 = GST)", "T12 construct": "also called TX 2", "T12 sequence (P08515 1-218, tags or fused parts left off)": "as above", "experiment": "A/G assays", "values": [
      {"binder": "Biotin-TSGTGHNQTRALRASESGI", "note": "[CD97 (CD55L) C-terminal PL peptide AA14L, biotinylated]", "binding result": "no binding"}
    ]},
    {"target": "T13, GST-MPP2 PDZ domain fusion protein (maguk p55 subfamily member 2 (DLG2) AA185-273; PDZ domain 1 of 1) (UniProt P08515 1-218 = GST)", "T13 construct": "also called MMP2", "T13 sequence (P08515 1-218, tags or fused parts left off)": "as above", "experiment": "A/G assays", "values": [
      {"binder": "Biotin-TSGTGHNQTRALRASESGI", "note": "[CD97 (CD55L) C-terminal PL peptide AA14L, biotinylated]", "binding result": "no binding"}
    ]},
    {"target": "T14, GST-41.8 kD PDZ domain fusion protein (hypothetical 41.8 kD protein AA4-85; PDZ domain 1 of 1) (UniProt P08515 1-218 = GST)", "T14 construct": "also called hypoth", "T14 sequence (P08515 1-218, tags or fused parts left off)": "as above", "experiment": "A assay", "values": [
      {"binder": "Biotin-TSGTGHNQTRALRASESGI", "note": "[CD97 (CD55L) C-terminal PL peptide AA14L, biotinylated]", "binding result": "binds"}
    ]}
  ]
}
